The chains are these.
B1: AahI'A2 (VHH)
VHH: QVQLQESGGGSVQAGGSLRLSCAASGFPASSYCMAWFRQAPGKEREGLAAIYNGGRRYYPDSLKGRFTIEDKAENTIYLEMNSLKPEDTATYYCAARSNQCWYATLQQSWYPYWGQGTQVTVSS
B2: AahI'D19 (VHH)
VHH: QVQLQESGGGLVQPGGSLRLSCAVTDFTFSFYWMYWVRQAPGKNLEWISSLHSDGYTYYPDSVKGRFTISRDTAKNMLYLQMNSLKPEDTAVYYCATAIRNMWGQAAPGSAGYWGQGTQVTVSS
B3: AahI'A3 (VHH)
VHH: QVQLQESGGGSVQAGGSLRLSCAASGFTFRSPYCMGWFRQAPGKEREAVAAIKTYYAGTVYADSMKGRFTITQDIAKNTVYLQMNSLKPEDTATYYCAATGGPYNGRCPLTSQPFPNWGQGTQVTVSS
B4: AahI'A17 (VHH)
VHH: QVQLQESGGGSVQDGGSLTLSCAASSSYVFNNLNMGWFRQAPGKECELVSTLFVNGITNYADSVKGRFTVSRDNAKNTVFLHMTNLSTEDTAVYYCAAPDVCSATRCGPACRGQGTQVTVSS
B5: AahI'B23 (VHH)
VHH: QVQLQESGGGSVQAGGSLRLSCAASGYQQTGYCMGWFRQAPGKEREGVAVIKTFYAGTVYADSVKGRFTISQDIAKNTVYLQMNSLQPEDTAMYYCAITGGPWNGRCPLTSQAFRYWGQGTQVTVSS
B6: AahI'B2 (VHH)
VHH: QVQLQESGGGSVQAGGSLRLSCVASEYSYRRNCMAWYRQAPGKEREGVARISTAYDITYYADSANGRFTISQDKAKKTVYLQMNSLKPEDSAMYYCSVSTGSDCYSMSLPRMDYWGKGTQVTVSS
B7: AahI'C14 (VHH)
VHH: QVQLQESGGGSVQAEGSLRLSCTVSGLTSSSNYVGWFRQAPGKEREGVATIGPYTRNTRYADSVNGRFTISLDNAKSTLYLQMNGLKPEDTAIYYCAAGKTTWIRALRSDDYKYWGQGTQVTVSS
B8: AahI'B1 (VHH)
VHH: QVQLQESGGGSVQAGGSLRLSCTASKYTSAVGWFRQAPGKEREGVASIYGYTGSGSSGSTYYADSGKGRFTISRDSAKNMVYLQMNSLKPEDTAMYYCTAADRPRFRLLVEDDVVYWGQGTQVTVSS
B9: NbAahII41 (VHH)
VHH: QVQLVESGGGSVQAGGSLRLSCAASGFDFSIYVMSWVRQAPGKGLEWISGIMPSGQTTYADAVKGRFTISRDNAKNTLYLQLNSLKTEDTAIYYCAKGVYTKYVGGARGQGTQVTVSS
notes: also called cluster I
B10: NbAahII08 (VHH)
VHH: DVQLVESGGGSVQAGGSLRLSCAASGDSYSNYYMAWFRQAPGKEREGVAHINRSGRITLYADSVKGRFTMSRDNAKNTVYLQMNSLKPEDTAIYYCAAGVRTHMPPLASYGFDYWGQGTQVTVSS
notes: also called cluster F
B11: NbAahII39 (VHH)
VHH: QVQLVESGGGSVQAGGSLRLSCAASGYTCTKFNMGWYRQAPGKERKMVATIRRDGTTYYADSVKGRFTISQDNAKNTVYLQMTSLKPEDSAMYYCSFRCVTPSLPYWGQGTQVTVSS
notes: also called cluster G

The results in this text go back to patent publication WO2009150539A2 (dated 2009).

What is called Kd is a measure of binding affinity in units of concentration. Higher therefore signals a looser complex. The koff is the rate constant with which the complex falls apart. A word on the kon: it is the rate constant with which the complex forms. Lower therefore signals slower complex formation.

The target in the first assay is AahI' toxin of Androctonus australis hector (Androctonus australis hector) (UniProt P01479). The assay can be described thus: cell-based or functional assay.
Chain of AahI' toxin of Androctonus australis hector (Androctonus australis hector) (P01479 20-82): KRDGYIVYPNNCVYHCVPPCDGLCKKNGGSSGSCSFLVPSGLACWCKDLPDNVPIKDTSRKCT
As for B1, the surviving mice; i.c.v.; 4 LD50 AahI'; ratio 1:2 (survivors of 4 mice) turned out to be 0.

B2: the surviving mice; i.c.v.; 4 LD50 AahI'; ratio 1:2 (survivors of 4 mice) came out at 4.

Regarding B3, the surviving mice; i.c.v.; 4 LD50 AahI'; ratio 1:2 (survivors of 4 mice) turned out to be 4.

Turning to B4, the surviving mice; i.c.v.; 4 LD50 AahI'; ratio 1:2 (survivors of 4 mice) is 4.

In the case of B5, the surviving mice; i.c.v.; 4 LD50 AahI'; ratio 1:2 (survivors of 4 mice) was found to be 0.

On to B6, for which the surviving mice; i.c.v.; 4 LD50 AahI'; ratio 1:2 (survivors of 4 mice) worked out at 4.

For the molecule B7, the surviving mice; i.c.v.; 4 LD50 AahI'; ratio 1:2 (survivors of 4 mice) came out at 0.

On to B8, for which the surviving mice; i.c.v.; 4 LD50 AahI'; ratio 1:2 (survivors of 4 mice) turned out to be 0.

A further assay addresses T1, AahII toxin of Androctonus australis hector (Androctonus australis hector, UniProt P01484 20-83).
T1 construct: mature; also called Aahll
T1 sequence: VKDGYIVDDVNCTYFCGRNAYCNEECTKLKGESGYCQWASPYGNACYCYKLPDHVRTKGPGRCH
Nature of the assay: SPR (BIAcore), AahII immobilised on CM5 chip, Nb in mobile phase.
B9 came in with a Kd of 2.31 nM, an off-rate constant (koff) of 0.01 s⁻¹ and a kon of 4.33e+06 M⁻¹ s⁻¹.

B10 had a dissociation constant Kd of 0.12 nM, a koff of 0.00138 s⁻¹ and an association rate constant (kon) of 1.19e+07 M⁻¹ s⁻¹.

As for B11, the Kd came out at 0.16 nM, the off-rate (koff) is 0.00105 s⁻¹ and the on-rate constant (kon) turned out to be 6.41e+06 M⁻¹ s⁻¹.
